Data on 6 molecules can be found in patent US20250340854, “ENGINEERED Cas12f PROTEIN” (THE UNIVERSITY OF TOKYO, published 2025).

In data set [1] the target is T1, Cas12f RARR (uncultured archaeon, UniProt A0A482D308 SEQ:1-529, I118R,Y122A,I126R,M178R).
T1 sequence: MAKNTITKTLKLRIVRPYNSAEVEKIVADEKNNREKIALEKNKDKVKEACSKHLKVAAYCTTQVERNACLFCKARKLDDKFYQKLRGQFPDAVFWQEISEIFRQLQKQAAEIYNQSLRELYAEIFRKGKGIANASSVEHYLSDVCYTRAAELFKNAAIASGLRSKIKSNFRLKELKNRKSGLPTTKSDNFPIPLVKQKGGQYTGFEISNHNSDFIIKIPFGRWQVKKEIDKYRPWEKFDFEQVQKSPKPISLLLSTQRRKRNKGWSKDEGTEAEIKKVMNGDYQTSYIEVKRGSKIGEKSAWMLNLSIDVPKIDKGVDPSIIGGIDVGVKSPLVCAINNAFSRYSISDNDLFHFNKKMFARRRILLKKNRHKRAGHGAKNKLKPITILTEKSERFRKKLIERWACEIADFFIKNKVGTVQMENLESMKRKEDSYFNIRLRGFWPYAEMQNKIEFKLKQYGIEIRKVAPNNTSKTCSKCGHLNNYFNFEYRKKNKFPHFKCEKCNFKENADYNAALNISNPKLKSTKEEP
The data set can be described thus: size exclusion co-elution; 5 mM MgCl2, 50 mM NaCl, pH 8.0. To be noted: tags: N-terminal His6; chain copies: 2 (stated). The method, then: (§1) The peak fraction was analyzed by SDS-PAGE and Urea PAGE. The WT Cas12f protein and the RARR mutant were each eluted together with sgRNA at the same position.

Data set [2] has as its target T2, Cas12f (Cas12f1, Cas14a) (uncultured archaeon, UniProt A0A482D308 SEQ:1-529).
T2 sequence: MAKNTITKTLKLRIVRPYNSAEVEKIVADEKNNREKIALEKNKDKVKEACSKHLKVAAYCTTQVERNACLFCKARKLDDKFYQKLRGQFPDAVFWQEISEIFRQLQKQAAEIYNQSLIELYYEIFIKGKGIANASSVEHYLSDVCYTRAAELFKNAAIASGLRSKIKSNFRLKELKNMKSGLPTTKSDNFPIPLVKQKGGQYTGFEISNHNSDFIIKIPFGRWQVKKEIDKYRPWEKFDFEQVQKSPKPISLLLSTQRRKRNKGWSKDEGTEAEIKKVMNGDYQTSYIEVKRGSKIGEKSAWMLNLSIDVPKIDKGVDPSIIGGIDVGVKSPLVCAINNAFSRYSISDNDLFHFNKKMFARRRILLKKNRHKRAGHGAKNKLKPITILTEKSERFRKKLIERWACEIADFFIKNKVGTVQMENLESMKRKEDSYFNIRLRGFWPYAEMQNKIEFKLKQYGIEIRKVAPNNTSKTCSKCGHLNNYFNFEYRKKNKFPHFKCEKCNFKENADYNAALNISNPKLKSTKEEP
Described as above. To be noted: tags: N-terminal His6; chain copies: 2 (stated). The method, then:
as §1

B1: WT sgRNA (ssRNA)
RNA: GGUUCACUGAUAAAGUGGAGAACCGCUUCACCAAAAGCUGUCCCUUAGGGGAUUAGAACUUGAGUGAAGGUGGGCUGCUUGCAUCAGCCUAAUGUCGAGAAGUGCUUUCUUCGGAAAGUAACCCUCGAAACAAAUUCAUUUGAAAGAAUGAAGGAAUGCAACGGAAAUUAGGUGCGCUUGGC
Take B1: the binding result in data set [1] and in data set [2] was “binds” throughout.

B2: Cas12f I118R mutant (protein)
chain: MAKNTITKTLKLRIVRPYNSAEVEKIVADEKNNREKIALEKNKDKVKEACSKHLKVAAYCTTQVERNACLFCKARKLDDKFYQKLRGQFPDAVFWQEISEIFRQLQKQAAEIYNQSLRELYYEIFIKGKGIANASSVEHYLSDVCYTRAAELFKNAAIASGLRSKIKSNFRLKELKNMKSGLPTTKSDNFPIPLVKQKGGQYTGFEISNHNSDFIIKIPFGRWQVKKEIDKYRPWEKFDFEQVQKSPKPISLLLSTQRRKRNKGWSKDEGTEAEIKKVMNGDYQTSYIEVKRGSKIGEKSAWMLNLSIDVPKIDKGVDPSIIGGIDVGVKSPLVCAINNAFSRYSISDNDLFHFNKKMFARRRILLKKNRHKRAGHGAKNKLKPITILTEKSERFRKKLIERWACEIADFFIKNKVGTVQMENLESMKRKEDSYFNIRLRGFWPYAEMQNKIEFKLKQYGIEIRKVAPNNTSKTCSKCGHLNNYFNFEYRKKNKFPHFKCEKCNFKENADYNAALNISNPKLKSTKEEP
B2: the “in vitro DNA cleavage activity” value is listed as “reduced the DNA cleavage activity”.

B3: Cas12f Y122A mutant (protein)
chain: MAKNTITKTLKLRIVRPYNSAEVEKIVADEKNNREKIALEKNKDKVKEACSKHLKVAAYCTTQVERNACLFCKARKLDDKFYQKLRGQFPDAVFWQEISEIFRQLQKQAAEIYNQSLIELYAEIFIKGKGIANASSVEHYLSDVCYTRAAELFKNAAIASGLRSKIKSNFRLKELKNMKSGLPTTKSDNFPIPLVKQKGGQYTGFEISNHNSDFIIKIPFGRWQVKKEIDKYRPWEKFDFEQVQKSPKPISLLLSTQRRKRNKGWSKDEGTEAEIKKVMNGDYQTSYIEVKRGSKIGEKSAWMLNLSIDVPKIDKGVDPSIIGGIDVGVKSPLVCAINNAFSRYSISDNDLFHFNKKMFARRRILLKKNRHKRAGHGAKNKLKPITILTEKSERFRKKLIERWACEIADFFIKNKVGTVQMENLESMKRKEDSYFNIRLRGFWPYAEMQNKIEFKLKQYGIEIRKVAPNNTSKTCSKCGHLNNYFNFEYRKKNKFPHFKCEKCNFKENADYNAALNISNPKLKSTKEEP
As for B3, the “in vitro DNA cleavage activity” value is given as “reduced the DNA cleavage activity”.

B4: Cas12f I126R mutant (protein)
chain: MAKNTITKTLKLRIVRPYNSAEVEKIVADEKNNREKIALEKNKDKVKEACSKHLKVAAYCTTQVERNACLFCKARKLDDKFYQKLRGQFPDAVFWQEISEIFRQLQKQAAEIYNQSLIELYYEIFRKGKGIANASSVEHYLSDVCYTRAAELFKNAAIASGLRSKIKSNFRLKELKNMKSGLPTTKSDNFPIPLVKQKGGQYTGFEISNHNSDFIIKIPFGRWQVKKEIDKYRPWEKFDFEQVQKSPKPISLLLSTQRRKRNKGWSKDEGTEAEIKKVMNGDYQTSYIEVKRGSKIGEKSAWMLNLSIDVPKIDKGVDPSIIGGIDVGVKSPLVCAINNAFSRYSISDNDLFHFNKKMFARRRILLKKNRHKRAGHGAKNKLKPITILTEKSERFRKKLIERWACEIADFFIKNKVGTVQMENLESMKRKEDSYFNIRLRGFWPYAEMQNKIEFKLKQYGIEIRKVAPNNTSKTCSKCGHLNNYFNFEYRKKNKFPHFKCEKCNFKENADYNAALNISNPKLKSTKEEP
Regarding B4, the “in vitro DNA cleavage activity” value is recorded as “reduced the DNA cleavage activity”.

B5: Cas12f M178R mutant (protein)
chain: MAKNTITKTLKLRIVRPYNSAEVEKIVADEKNNREKIALEKNKDKVKEACSKHLKVAAYCTTQVERNACLFCKARKLDDKFYQKLRGQFPDAVFWQEISEIFRQLQKQAAEIYNQSLIELYYEIFIKGKGIANASSVEHYLSDVCYTRAAELFKNAAIASGLRSKIKSNFRLKELKNRKSGLPTTKSDNFPIPLVKQKGGQYTGFEISNHNSDFIIKIPFGRWQVKKEIDKYRPWEKFDFEQVQKSPKPISLLLSTQRRKRNKGWSKDEGTEAEIKKVMNGDYQTSYIEVKRGSKIGEKSAWMLNLSIDVPKIDKGVDPSIIGGIDVGVKSPLVCAINNAFSRYSISDNDLFHFNKKMFARRRILLKKNRHKRAGHGAKNKLKPITILTEKSERFRKKLIERWACEIADFFIKNKVGTVQMENLESMKRKEDSYFNIRLRGFWPYAEMQNKIEFKLKQYGIEIRKVAPNNTSKTCSKCGHLNNYFNFEYRKKNKFPHFKCEKCNFKENADYNAALNISNPKLKSTKEEP
Consider B5, for which the “in vitro DNA cleavage activity” value was “reduced the DNA cleavage activity”.

B6: Cas12f I118R/Y122A/I126R/M178R (RARR) mutant (protein)
chain: MAKNTITKTLKLRIVRPYNSAEVEKIVADEKNNREKIALEKNKDKVKEACSKHLKVAAYCTTQVERNACLFCKARKLDDKFYQKLRGQFPDAVFWQEISEIFRQLQKQAAEIYNQSLRELYAEIFRKGKGIANASSVEHYLSDVCYTRAAELFKNAAIASGLRSKIKSNFRLKELKNRKSGLPTTKSDNFPIPLVKQKGGQYTGFEISNHNSDFIIKIPFGRWQVKKEIDKYRPWEKFDFEQVQKSPKPISLLLSTQRRKRNKGWSKDEGTEAEIKKVMNGDYQTSYIEVKRGSKIGEKSAWMLNLSIDVPKIDKGVDPSIIGGIDVGVKSPLVCAINNAFSRYSISDNDLFHFNKKMFARRRILLKKNRHKRAGHGAKNKLKPITILTEKSERFRKKLIERWACEIADFFIKNKVGTVQMENLESMKRKEDSYFNIRLRGFWPYAEMQNKIEFKLKQYGIEIRKVAPNNTSKTCSKCGHLNNYFNFEYRKKNKFPHFKCEKCNFKENADYNAALNISNPKLKSTKEEP
Regarding B6, the “in vitro DNA cleavage activity” value is recorded as “lacked the DNA cleavage activity”.
